Data on 22 molecules can be found in patent EP4721754A1 (Hangzhou Sciwind Biosciences Co., Ltd., dated 2026).

T1: amylin receptor (hAMY3R) (human, UniProt P30988 25-474; O60896 24-148)
T1 sequence (looked up) 1: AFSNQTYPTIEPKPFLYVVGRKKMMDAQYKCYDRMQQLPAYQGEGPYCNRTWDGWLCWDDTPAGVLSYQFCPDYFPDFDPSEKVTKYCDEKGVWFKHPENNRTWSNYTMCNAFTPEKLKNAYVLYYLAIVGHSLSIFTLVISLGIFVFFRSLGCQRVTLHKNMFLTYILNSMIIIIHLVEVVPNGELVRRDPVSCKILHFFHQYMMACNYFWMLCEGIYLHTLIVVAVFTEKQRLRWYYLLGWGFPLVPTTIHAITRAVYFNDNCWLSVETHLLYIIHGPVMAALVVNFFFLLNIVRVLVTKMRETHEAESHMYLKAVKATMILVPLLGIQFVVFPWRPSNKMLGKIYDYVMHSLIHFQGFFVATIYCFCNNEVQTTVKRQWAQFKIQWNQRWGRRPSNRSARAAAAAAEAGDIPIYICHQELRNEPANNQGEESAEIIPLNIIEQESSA
T1 sequence (looked up) 2: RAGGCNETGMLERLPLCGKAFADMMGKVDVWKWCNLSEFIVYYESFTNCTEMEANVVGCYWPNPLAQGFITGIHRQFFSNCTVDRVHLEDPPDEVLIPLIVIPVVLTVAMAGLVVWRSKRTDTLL

T2: calcitonin receptor (hCTR) (human, UniProt P30988 25-474)
T2 sequence (looked up): T1 sequence (looked up) 1

B1: M25 (peptide)
peptide: ASQLSTAVLGRLSDELHRLQDYPRTDVGSGSP
modifications: not fully specified; N terminus: C20 diacid + βAsp+2 AEEAs
B2: M28 (peptide)
peptide: B1 peptide
modifications: N terminus: C18 diacid + Trx+2 AEEAs
B3: M29 (peptide)
peptide: B1 peptide
modifications: not fully specified; N terminus: C20 diacid + Inp+2 AEEAs
B4: M14 (peptide)
peptide: B1 peptide
modifications: not fully specified; N terminus: C20 diacid + Trx
B5: M15 (peptide)
peptide: B1 peptide
modifications: N terminus: C18 diacid + Trx
B6: M18 (peptide)
peptide: B1 peptide
modifications: not fully specified; N terminus: C20 diacid + yGlu+2 AEEAs
B7: M12 (peptide)
peptide: B1 peptide
modifications: not fully specified; N terminus: C20 diacid + βAsp
B8: M27 (peptide)
peptide: B1 peptide
modifications: not fully specified; N terminus: C20 diacid + Trx+2 AEEAs
B9: M11 (peptide)
peptide: {C18 diacid}-EASQLSTAVLGRLSDELHRLQDYPRTDVGSGSP-NH2
B10: M7 (peptide)
peptide: {C22 diacid′-γGlu}-ASQLSTAVLGRLSDELHRLQDYPRTDVGSGSP-NH2
modifications: ends and bridges not checked
B11: N2 (peptide)
peptide: {C20 diacid-βAsp-AEEA-AEEA}-KCNTATCATQRLADFLRHSSNNLKPILPPTNVGSNT[Hyp]-NH2
modifications: disulfide 2-7 (inferred); ends not checked
B12: M13 (peptide)
peptide: {C18 diacid}-DASQLSTAVLGRLSDELHRLQDYPRTDVGSGSP-NH2
B13: N3 (peptide)
peptide: {C18 diacid-βAsp-AEEA-AEEA}-KCNTATCATQRLADFLRHSSNNLKPILPPTNVGSNT[Hyp]-NH2
modifications: disulfide 2-7 (inferred); ends not checked
B14: M9 (peptide)
peptide: {C16 diacid-γGlu}-ASQLSTAVLGRLSDELHRLQDYPRTDVGSGSP-NH2
modifications: ends and bridges not checked
B15: M26 (peptide)
peptide: {C18 diacid}-D[AEEA][AEEA]ASQLSTAVLGRLSDELHRLQDYPRTDVGSGSP-NH2
B16: N1 (peptide)
peptide: {C20 diacid-AEEA-AEEA}-KCNTATCATQRLADFLRHSSNNLKPILPPTNVGSNT[Hyp]-NH2
modifications: disulfide 2-7 (inferred); ends not checked
B17: M5 (peptide)
peptide: ASQLSTAVLGRLSQELHRLQDYPRTDVGSGSP-NH2
B18: M10 (peptide)
peptide: B1 peptide
modifications: not fully specified; N terminus: C20 diacid + αGlu
B19: M23 (peptide)
peptide: B1 peptide
modifications: not fully specified; N terminus: C20 diacid + αGlu+2 AEEAs
B20: M21 (peptide)
peptide: B1 peptide
modifications: not fully specified; N terminus: C20 diacid + yGlu+8 AEEAs
B21: M22 (peptide)
peptide: {C18 diacid-γGlu-AEEA-AEEA}-ASQLSTAVLGRLSDELHRLQDYPRTDVGSGSP-NH2
B22: M8 (peptide)
peptide: {C18 diacid-γGlu}-ASQLSTAVLGRLSDELHRLQDYPRTDVGSGSP-NH2
modifications: ends and bridges not checked

Numbered stars: 1 amine (or outer) side, 2 acyl side, 3 side chain; on linkers, the order of the positions; unused ones are H or OH. Bridge positions count the residues as written; N and C are the ends. Square brackets hold non-standard residues; d marks the D form. Primed or numbered codes have the meaning given here. Ends that are not written are not given here. * marks the point of attachment. C22 diacid′ = docosanedioic acid (C22 diacid) acyl; C20 diacid = O=C(O)CCCCCCCCCCCCCCCCCCC(=O)*; C18 diacid = O=C(O)CCCCCCCCCCCCCCCCC(=O)*; C16 diacid = O=C(O)CCCCCCCCCCCCCCC(=O)*; γGlu = O=C(O)[C@H](CCC(=O)[*:2])N[*:1]; βAsp = O=C(O)[C@H](CC(=O)[*:2])N[*:1]; Hyp = O=C(O)[C@@H]1C[C@@H](O)CN1; AEEA = NCCOCCOCC(=O)O

The first assay addresses T1, amylin receptor (hAMY3R). The assay is described as follows: cell-based or functional assay.
Turning to B1, the “Fold change in activity against hAMY3R (benchmark D1)” value amounted to 2.12 fold.
Take B2: the “Fold change in activity against hAMY3R (benchmark D1)” value came out at 18 fold.
Same read-out and setting: as for B3, the figure is 6 fold; as for B4, 0.079 fold; as for B5, 0.303 fold.
B6: the “Fold change in activity against hAMY3R (benchmark D1)” value stood at 2.25 fold and the “hAMY3R EC50, CRE-luciferase reporter cells” value was 0.016 nM.
With B7, the “Fold change in activity against hAMY3R (benchmark D1)” value is 2.12 fold.
For the molecule B8, the “Fold change in activity against hAMY3R (benchmark D1)” value is 9 fold.
B9: the “Fold change in activity against hAMY3R (benchmark D1)” value stood at 2.25 fold.

For another assay, the target named is T2, calcitonin receptor (hCTR). The assay is described as follows: cell-based or functional assay.
On to B1, for which the “Fold change in activity against hCTR (benchmark D1)” value was 0.623 fold.
For the molecule B2, the “Fold change in activity against hCTR (benchmark D1)” value was 0.966 fold and the “hCTR EC50, CRE-luciferase reporter cells” value is 0.089 nM.
As to B3, the “Fold change in activity against hCTR (benchmark D1)” value stood at 0.551 fold and the “hCTR EC50, CRE-luciferase reporter cells” value came out at 0.156 nM.
For B4, the “Fold change in activity against hCTR (benchmark D1)” value stood at 0.147 fold.
For B5, the “Fold change in activity against hCTR (benchmark D1)” value was found to be 0.183 fold.
On to B6, for which the “Fold change in activity against hCTR (benchmark D1)” value turned out to be 1.25 fold.
In the case of B7, the “Fold change in activity against hCTR (benchmark D1)” value is 1.18 fold.
For B8, the “Fold change in activity against hCTR (benchmark D1)” value is 0.161 fold and the “hCTR EC50, CRE-luciferase reporter cells” value was 0.533 nM.
As for B9, the “Fold change in activity against hCTR (benchmark D1)” value was 1.21 fold.

The target of a further assay is T1, amylin receptor (hAMY3R). The assay is described as follows: cell-based or functional assay. The source holds these as a separate data set.
With B10, the “EC50, CRE-luciferase reporter in amylin receptor/CRE-luc CHO cells, 24 h” value is 0.022 nM.
On to B11, for which the “EC50, CRE-luciferase reporter in amylin receptor/CRE-luc CHO cells (incubation presumably 4 h, per paragraph 38)” value worked out at 0.009 nM and the “EC50, CRE-luciferase reporter in amylin receptor/CRE-luc CHO cells (incubation presumably 24 h)” value is 0.04 nM.
For B12, the “EC50, CRE-luciferase reporter in amylin receptor/CRE-luc CHO cells, 24 h” value turned out to be 0.016 nM.
For B13, the “EC50, CRE-luciferase reporter in amylin receptor/CRE-luc CHO cells (incubation presumably 4 h, per paragraph 38)” value was 0.001 nM.
Regarding B14, the “EC50, CRE-luciferase reporter in amylin receptor/CRE-luc CHO cells, 24 h” value came out at 0.002 nM.
On to B15, for which the “EC50, CRE-luciferase reporter in amylin receptor/CRE-luc CHO cells, 24 h” value was found to be 0.008 nM.
For B16, the “EC50, CRE-luciferase reporter in amylin receptor/CRE-luc CHO cells, 24 h” value was found to be 0.016 nM.
B17: the “EC50, CRE-luciferase reporter in amylin receptor/CRE-luc CHO cells, 24 h” value came out at 0.033 nM.
On to B1, for which the “EC50, CRE-luciferase reporter in amylin receptor/CRE-luc CHO cells, 24 h” value is 0.017 nM.
Regarding B2, the “EC50, CRE-luciferase reporter in amylin receptor/CRE-luc CHO cells, 24 h” value came out at 0.002 nM.
Take B3: the “EC50, CRE-luciferase reporter in amylin receptor/CRE-luc CHO cells, 24 h” value turned out to be 0.006 nM.
Still for that read-out and setting: under B4 stands 0.456 nM; under B5, 0.119 nM.
For B18, the “EC50, CRE-luciferase reporter in amylin receptor/CRE-luc CHO cells, 24 h” value amounted to 0.069 nM.
With B19, the “EC50, CRE-luciferase reporter in amylin receptor/CRE-luc CHO cells, 24 h” value was determined as 0.017 nM.
Turning to B7, the “EC50, CRE-luciferase reporter in amylin receptor/CRE-luc CHO cells, 24 h” value came out at 0.017 nM.
Turning to B8, the “EC50, CRE-luciferase reporter in amylin receptor/CRE-luc CHO cells, 24 h” value was 0.004 nM.
On to B20, for which the “EC50, CRE-luciferase reporter in amylin receptor/CRE-luc CHO cells, 24 h” value turned out to be 0.044 nM.
Same read-out and setting: as for B21, the figure is 0.015 nM.
For the molecule B9, the “EC50, CRE-luciferase reporter in amylin receptor/CRE-luc CHO cells, 24 h” value was 0.016 nM.
As for B22, the “EC50, CRE-luciferase reporter in amylin receptor/CRE-luc CHO cells, 24 h” value stood at 0.016 nM.

The target in another assay is T2, calcitonin receptor (hCTR). Put plainly: cell-based or functional assay. The source holds these as a separate data set.
With B10, the “EC50, CRE-luciferase reporter in calcitonin receptor/CRE-luc CHO cells, 24 h” value was found to be 0.194 nM.
On to B12, for which the “EC50, CRE-luciferase reporter in calcitonin receptor/CRE-luc CHO cells, 24 h” value was 0.085 nM.
With B14, the “EC50, CRE-luciferase reporter in calcitonin receptor/CRE-luc CHO cells, 24 h” value stood at 0.12 nM.
On the same count and under the same terms, under B15 stands 0.024 nM; under B1, 0.138 nM.
In the case of B4, the “EC50, CRE-luciferase reporter in calcitonin receptor/CRE-luc CHO cells, 24 h” value was found to be 0.587 nM.
Turning to B5, the “EC50, CRE-luciferase reporter in calcitonin receptor/CRE-luc CHO cells, 24 h” value stood at 0.469 nM.
On to B6, for which the “EC50, CRE-luciferase reporter in calcitonin receptor/CRE-luc CHO cells, 24 h” value came out at 0.069 nM.
In the case of B7, the “EC50, CRE-luciferase reporter in calcitonin receptor/CRE-luc CHO cells, 24 h” value stood at 0.073 nM.
In the case of B9, the “EC50, CRE-luciferase reporter in calcitonin receptor/CRE-luc CHO cells, 24 h” value was found to be 0.071 nM.
On the same count and under the same terms, under B22 stands 0.165 nM.
